Results published in the supplement of paper PMC9112550, “Optimization of the antimicrobial peptide Bac7 by deep mutational scanning” (BMC Biology, 2022).

What follows are sequences tested on Escherichia coli TOP10 (assay: shrunken log2 fold change of peptide-encoding DNA abundance (4.5 h post-induction vs induction); higher = less antimicrobial activity (less host growth inhibition)). Conditions: time post-induction: 4.5 h; library: site-saturation at positions 5, 18, 19, 20.
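Also: peptides expressed intracellularly from a pBAD plasmid library in pooled LB shake-flask culture, induced with 0.3% L-arabinose, DNA abundance read by NGS, three biological replicates, DESeq2 with apeglm shrinkage.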

Row | Sequence | shrunken log2 fold change
1 | RRIRDRPPRLPRPRPRPLDMPRP | -0.08
2 | RRIRSRPPRLPRPRPRPINYPRP | -0.336
3 | RRIRYRPPRLPRPRPRPIMAPRP | -0.708
4 | RRIRVRPPRLPRPRPRPIANPRP | 0.0572
5 | RRIRYRPPRLPRPRPRPKITPRP | -0.57
6 | RRIRWRPPRLPRPRPRPCLCPRP | -0.0914
7 | RRIRQRPPRLPRPRPRPEFGPRP | -0.0374
8 | RRIRNRPPRLPRPRPRPSHQPRP | -0.374
9 | RRIRSRPPRLPRPRPRPPVCPRP | 0.311
10 | RRIRCRPPRLPRPRPRPQQNPRP | 0.0237
11 | RRIRNRPPRLPRPRPRPFHWPRP | -0.186
12 | RRIRGRPPRLPRPRPRPRCHPRP | 0.564
13 | RRIRERPPRLPRPRPRPATEPRP | -0.155
14 | RRIRRRPPRLPRPRPRPVSLPRP | -0.15
15 | RRIRKRPPRLPRPRPRPAHTPRP | 0.471
16 | RRIRSRPPRLPRPRPRPKLEPRP | 0.165
17 | RRIRFRPPRLPRPRPRPYHKPRP | -0.6
18 | RRIRDRPPRLPRPRPRPYFHPRP | -0.678
19 | RRIRTRPPRLPRPRPRPQMCPRP | 0.0024
20 | RRIRVRPPRLPRPRPRPSLVPRP | 0.974
21 | RRIRIRPPRLPRPRPRPTRFPRP | 0.04
22 | RRIRYRPPRLPRPRPRPQMNPRP | -1.27
23 | RRIRPRPPRLPRPRPRPHEFPRP | 0.253
24 | RRIRTRPPRLPRPRPRPYLNPRP | -0.484
25 | RRIRNRPPRLPRPRPRPIKRPRP | 0.0699

Row | Sequence | shrunken log2 fold change
26 | RRIRARPPRLPRPRPRPLVGPRP | 0.321
27 | RRIRGRPPRLPRPRPRPMSKPRP | 0.269
28 | RRIRPRPPRLPRPRPRPTKKPRP | 0.0418
29 | RRIRFRPPRLPRPRPRPVTQPRP | -0.244
30 | RRIRMRPPRLPRPRPRPEGPPRP | 0.578
31 | RRIRRRPPRLPRPRPRPPWFPRP | 0.479
32 | RRIRCRPPRLPRPRPRPAEAPRP | 0.12
33 | RRIRPRPPRLPRPRPRPNKAPRP | 0.0279
34 | RRIRMRPPRLPRPRPRPIGLPRP | -0.062
35 | RRIRPRPPRLPRPRPRPTSPPRP | -0.0252
36 | RRIRTRPPRLPRPRPRPEIDPRP | 0.0426
37 | RRIRVRPPRLPRPRPRPKMFPRP | -0.056
38 | RRIRIRPPRLPRPRPRPTRRPRP | 0.298
39 | RRIRSRPPRLPRPRPRPDVIPRP | 0.0141
40 | RRIRFRPPRLPRPRPRPFLLPRP | -0.696
41 | RRIRNRPPRLPRPRPRPRRRPRP | 0.558
42 | RRIRRRPPRLPRPRPRPQEKPRP | 0.0332
43 | RRIRRRPPRLPRPRPRPTTQPRP | 0.356
44 | RRIRERPPRLPRPRPRPEEDPRP | -0.058
45 | RRIRLRPPRLPRPRPRPPHLPRP | -0.0637
46 | RRIRCRPPRLPRPRPRPCYIPRP | -0.0945
47 | RRIRDRPPRLPRPRPRPGVAPRP | 0.76
48 | RRIRDRPPRLPRPRPRPDTYPRP | -0.0814
49 | RRIRARPPRLPRPRPRPIAQPRP | 0.459
50 | RRIRWRPPRLPRPRPRPIHYPRP | -1.07

Row | Sequence | shrunken log2 fold change
51 | RRIRMRPPRLPRPRPRPGEYPRP | 0.434
52 | RRIRWRPPRLPRPRPRPDQFPRP | -0.0202
53 | RRIRHRPPRLPRPRPRPQKMPRP | -0.132
54 | RRIRNRPPRLPRPRPRPYMHPRP | -0.671
55 | RRIRHRPPRLPRPRPRPAVEPRP | -0.0419
56 | RRIRQRPPRLPRPRPRPQAAPRP | 0.0499
57 | RRIRIRPPRLPRPRPRPNQHPRP | -0.337
58 | RRIRHRPPRLPRPRPRPQAPPRP | -0.0401
59 | RRIRCRPPRLPRPRPRPAYKPRP | -0.093
60 | RRIRRRPPRLPRPRPRPCYCPRP | -0.00192
61 | RRIRRRPPRLPRPRPRPWFNPRP | -0.241
62 | RRIRDRPPRLPRPRPRPMKPPRP | 0.0123
63 | RRIRWRPPRLPRPRPRPFFTPRP | -0.0367
64 | RRIRNRPPRLPRPRPRPNKSPRP | -0.338
65 | RRIRMRPPRLPRPRPRPMGNPRP | 0.451
66 | RRIRTRPPRLPRPRPRPPWSPRP | 0.194
67 | RRIRWRPPRLPRPRPRPDVIPRP | -0.118
68 | RRIRHRPPRLPRPRPRPNCWPRP | 0.612
69 | RRIRSRPPRLPRPRPRPEFNPRP | 0.24
70 | RRIRARPPRLPRPRPRPNGKPRP | 0.3
71 | RRIRKRPPRLPRPRPRPHSSPRP | 0.0945
72 | RRIRKRPPRLPRPRPRPPRVPRP | 0.648
73 | RRIRIRPPRLPRPRPRPKPIPRP | -0.0437
74 | RRIRRRPPRLPRPRPRPIIEPRP | 0.0476
75 | RRIRCRPPRLPRPRPRPIPHPRP | -0.744

Row | Sequence | shrunken log2 fold change
76 | RRIRCRPPRLPRPRPRPYINPRP | -0.968
77 | RRIRDRPPRLPRPRPRPLNSPRP | 0.0283
78 | RRIRERPPRLPRPRPRPGDKPRP | -0.315
79 | RRIRMRPPRLPRPRPRPKDDPRP | 2.12
80 | RRIRIRPPRLPRPRPRPHNCPRP | -0.0359
81 | RRIRFRPPRLPRPRPRPMTDPRP | -0.269
82 | RRIRYRPPRLPRPRPRPQCAPRP | -0.247
83 | RRIRTRPPRLPRPRPRPGKWPRP | -0.192
84 | RRIRNRPPRLPRPRPRPGTWPRP | 0.218
85 | RRIRTRPPRLPRPRPRPFNVPRP | -0.029
86 | RRIRHRPPRLPRPRPRPRDSPRP | 0.0922
87 | RRIRQRPPRLPRPRPRPKEKPRP | 0.00902
88 | RRIRNRPPRLPRPRPRPYPRPRP | 0.0154
89 | RRIRCRPPRLPRPRPRPLILPRP | -0.373
90 | RRIRQRPPRLPRPRPRPNNDPRP | -0.624
91 | RRIRFRPPRLPRPRPRPCMPPRP | -0.35
92 | RRIRFRPPRLPRPRPRPDSPPRP | -0.168
93 | RRIRFRPPRLPRPRPRPQMQPRP | 0.203
94 | RRIRFRPPRLPRPRPRPYVWPRP | 0.109
95 | RRIRYRPPRLPRPRPRPRFNPRP | -0.808
96 | RRIRGRPPRLPRPRPRPNFGPRP | 0.128
97 | RRIRPRPPRLPRPRPRPETSPRP | 0.328
98 | RRIRNRPPRLPRPRPRPQEAPRP | -0.0152
99 | RRIRLRPPRLPRPRPRPCHRPRP | 0.00936
100 | RRIRMRPPRLPRPRPRPGWMPRP | 0.622

Row | Sequence | shrunken log2 fold change
101 | RRIRIRPPRLPRPRPRPSNLPRP | -0.931
102 | RRIRPRPPRLPRPRPRPYCEPRP | -0.337
103 | RRIRYRPPRLPRPRPRPPPNPRP | 0.873
104 | RRIRCRPPRLPRPRPRPTTKPRP | -0.0602
105 | RRIRVRPPRLPRPRPRPCISPRP | 0.00333
106 | RRIRIRPPRLPRPRPRPWRQPRP | 0.0165
107 | RRIRHRPPRLPRPRPRPIHNPRP | -0.545
108 | RRIRQRPPRLPRPRPRPKNCPRP | -0.0633
109 | RRIRIRPPRLPRPRPRPPYVPRP | -0.121
110 | RRIRWRPPRLPRPRPRPSGEPRP | 0.138
111 | RRIRERPPRLPRPRPRPHVWPRP | 0.191
112 | RRIRWRPPRLPRPRPRPAALPRP | 0.257
113 | RRIRQRPPRLPRPRPRPNSNPRP | -0.648
114 | RRIRHRPPRLPRPRPRPPFPPRP | 0.0224
115 | RRIRFRPPRLPRPRPRPEEAPRP | 0.253
116 | RRIRYRPPRLPRPRPRPDPSPRP | -0.566
117 | RRIRLRPPRLPRPRPRPVCNPRP | -0.0299
118 | RRIRLRPPRLPRPRPRPDWAPRP | 0.0283
119 | RRIRWRPPRLPRPRPRPHARPRP | 0.516
120 | RRIRMRPPRLPRPRPRPHCKPRP | 0.00214
121 | RRIRIRPPRLPRPRPRPEYGPRP | -0.0842
122 | RRIRLRPPRLPRPRPRPVDDPRP | -0.219
123 | RRIRSRPPRLPRPRPRPWMLPRP | -0.14
124 | RRIRPRPPRLPRPRPRPCFGPRP | 1.01
125 | RRIRYRPPRLPRPRPRPWFMPRP | -0.356

Row | Sequence | shrunken log2 fold change
126 | RRIRLRPPRLPRPRPRPQAYPRP | -0.126
127 | RRIRKRPPRLPRPRPRPFWNPRP | -0.0468
128 | RRIRPRPPRLPRPRPRPIQSPRP | -0.083
129 | RRIRTRPPRLPRPRPRPGLYPRP | 0.194
130 | RRIRFRPPRLPRPRPRPSAFPRP | -0.204
131 | RRIRFRPPRLPRPRPRPHSMPRP | -0.328
132 | RRIRYRPPRLPRPRPRPLYWPRP | -0.943
133 | RRIRGRPPRLPRPRPRPHHRPRP | -0.00334
134 | RRIRNRPPRLPRPRPRPWGNPRP | 0.00408
135 | RRIRMRPPRLPRPRPRPYDEPRP | 0.0491
136 | RRIRKRPPRLPRPRPRPHDMPRP | 0.0328
137 | RRIRRRPPRLPRPRPRPPRSPRP | 0.904
138 | RRIRHRPPRLPRPRPRPVIYPRP | -0.678
139 | RRIRLRPPRLPRPRPRPSYEPRP | -0.496
140 | RRIRGRPPRLPRPRPRPPWAPRP | 0.769
141 | RRIRSRPPRLPRPRPRPWMCPRP | -0.391
142 | RRIRHRPPRLPRPRPRPNHKPRP | -0.973
143 | RRIRVRPPRLPRPRPRPKKCPRP | 0.0567
144 | RRIRHRPPRLPRPRPRPRNSPRP | -0.05
145 | RRIRQRPPRLPRPRPRPRAPPRP | 0.749
146 | RRIRCRPPRLPRPRPRPWQRPRP | 0.109
147 | RRIRGRPPRLPRPRPRPLVQPRP | 0.802
148 | RRIRIRPPRLPRPRPRPGDAPRP | 0.0793
149 | RRIRFRPPRLPRPRPRPPTMPRP | 0.166
150 | RRIRYRPPRLPRPRPRPRMRPRP | 0.667
